Measurements reported in PMC13281839.

Target: N‐terminal half of fibrillin‐1, fragment rF90 (S19‐V1527) (UniProt P35555)
Experiment: SPR

Chain of UniProt P35555 (P35555 45-1527): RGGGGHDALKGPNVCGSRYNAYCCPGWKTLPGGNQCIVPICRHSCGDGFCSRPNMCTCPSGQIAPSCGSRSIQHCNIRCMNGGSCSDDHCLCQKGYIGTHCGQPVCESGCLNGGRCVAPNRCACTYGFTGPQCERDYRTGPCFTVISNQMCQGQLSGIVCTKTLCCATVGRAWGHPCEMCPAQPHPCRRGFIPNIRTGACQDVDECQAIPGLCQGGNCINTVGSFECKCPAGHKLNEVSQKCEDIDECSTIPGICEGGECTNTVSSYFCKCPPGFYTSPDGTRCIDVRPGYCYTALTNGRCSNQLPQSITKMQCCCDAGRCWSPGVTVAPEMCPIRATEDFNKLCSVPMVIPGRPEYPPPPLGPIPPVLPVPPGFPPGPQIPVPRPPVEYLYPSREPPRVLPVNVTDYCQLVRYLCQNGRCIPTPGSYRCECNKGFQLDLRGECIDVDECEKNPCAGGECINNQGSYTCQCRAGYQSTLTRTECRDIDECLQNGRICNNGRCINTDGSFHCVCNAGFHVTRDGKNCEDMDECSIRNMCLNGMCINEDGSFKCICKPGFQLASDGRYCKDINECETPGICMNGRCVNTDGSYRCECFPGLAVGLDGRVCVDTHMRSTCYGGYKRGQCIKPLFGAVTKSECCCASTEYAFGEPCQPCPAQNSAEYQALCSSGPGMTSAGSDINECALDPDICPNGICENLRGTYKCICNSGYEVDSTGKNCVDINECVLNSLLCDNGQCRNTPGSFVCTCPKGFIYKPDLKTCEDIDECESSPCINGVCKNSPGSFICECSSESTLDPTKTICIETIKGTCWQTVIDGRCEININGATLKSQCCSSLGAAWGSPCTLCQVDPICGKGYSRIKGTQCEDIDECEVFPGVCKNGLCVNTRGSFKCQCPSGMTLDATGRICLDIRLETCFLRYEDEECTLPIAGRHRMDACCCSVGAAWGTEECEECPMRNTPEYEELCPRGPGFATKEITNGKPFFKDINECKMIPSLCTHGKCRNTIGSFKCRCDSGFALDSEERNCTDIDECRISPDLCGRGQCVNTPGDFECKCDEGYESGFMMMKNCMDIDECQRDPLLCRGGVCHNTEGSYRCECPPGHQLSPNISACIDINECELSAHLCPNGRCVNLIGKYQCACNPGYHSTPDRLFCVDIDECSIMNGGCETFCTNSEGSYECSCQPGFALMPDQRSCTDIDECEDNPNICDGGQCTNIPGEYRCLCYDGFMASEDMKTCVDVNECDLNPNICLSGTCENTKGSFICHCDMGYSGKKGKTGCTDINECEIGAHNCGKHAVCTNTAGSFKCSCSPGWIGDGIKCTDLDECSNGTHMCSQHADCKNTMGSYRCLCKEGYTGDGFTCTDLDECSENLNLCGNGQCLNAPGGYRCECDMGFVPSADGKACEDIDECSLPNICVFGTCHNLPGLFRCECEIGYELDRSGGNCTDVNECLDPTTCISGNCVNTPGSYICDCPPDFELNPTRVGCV

Kd: 7 nM
Substance: BMP‐7 CPLX (BMP‐7 growth factor‐prodomain complex) (from UniProt P18075 293-431)
